The values that follow are results of earlier work, collected in patent publication US20100183645A1, “ACTIVE OR PASSIVE IMMUNIZATION AGAINST PROAPOPTOTIC NEUROTROPHINS FOR THE TREATMENT AND/OR PREVENTION OF NEURODEGENERATIVE DISEASES” (INSTITUT PASTEUR, priority 2003, published 2010).

No end group written: not given here.

The target in this data set is T1, p75NTR (Homo sapiens, UniProt P08138).
T1 sequence (P08138 29-427): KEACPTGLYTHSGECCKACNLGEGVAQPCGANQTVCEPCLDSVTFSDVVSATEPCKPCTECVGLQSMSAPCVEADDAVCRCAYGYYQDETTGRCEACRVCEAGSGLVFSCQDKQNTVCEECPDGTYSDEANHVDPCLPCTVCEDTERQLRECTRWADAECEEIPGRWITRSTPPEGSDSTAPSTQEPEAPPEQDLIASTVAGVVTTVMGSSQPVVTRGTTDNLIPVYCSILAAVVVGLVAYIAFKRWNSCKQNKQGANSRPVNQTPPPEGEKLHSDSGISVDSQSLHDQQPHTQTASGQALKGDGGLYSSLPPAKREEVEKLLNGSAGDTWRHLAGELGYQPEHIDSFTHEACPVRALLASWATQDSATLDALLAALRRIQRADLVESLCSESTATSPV
Conditions: Beglova et al, 2000; Saragovi et al, 2000, 2002; cited from earlier work.

Consider “short cyclic peptide derived from an exposed loop of mature NGF (residues C30-C35): short cyclic peptide from an exposed loop of mature NGF, involved in NGF-p75NTR interactions (DIKGKE; also: cyclic peptide, ring closure not given here; UniProt P01139 151-156, looked up, fragment)”, for which the “Blocking of neurotrophin binding to p75NTR” value is on record as “specifically block”.
